Consider one substance from publication doi:10.1101/2021.11.30.470528.

This experiment has as its target GST affinity tag. Description: SEC. On the technique in general: SEC sorts molecules by how far they enter the pores of the column.

GST affinity tag, sequence (P08515 2-218): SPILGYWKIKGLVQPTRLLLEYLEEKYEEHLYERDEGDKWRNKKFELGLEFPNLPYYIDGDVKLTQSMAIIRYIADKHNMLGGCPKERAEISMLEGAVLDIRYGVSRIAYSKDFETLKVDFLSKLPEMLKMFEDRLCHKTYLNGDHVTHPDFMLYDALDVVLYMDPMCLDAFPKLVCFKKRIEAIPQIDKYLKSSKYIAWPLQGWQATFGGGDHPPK

As to GST affinity tag, the stoichiometry N (usually the number of molecules, sites or subunits per partner or assembly) was 2.
